Consider 1 protein from PMC2659760.

Substrate in series [1]: NCc1ccccc1
Kind of series: Substrate activity with BPAO. The format is biochemical, bovine. The following applies: other: UV-vis spectrophotometry, pH 7.2 phosphate buffer, 30 °C.

Substrate in series [2]: COc1ccc2cc(CN)ccc2c1
Kind of series: Substrate activity with BPAO. The format is biochemical, bovine. Conditions: other: UV-vis spectrophotometry, pH 7.2 phosphate buffer, 30 °C.

B1: bovine plasma amine oxidase (BPAO) (Bos taurus) (protein)
chain: REEGGVGSEEGVGKQCHPSLPPRCPSRSPSDQPWTHPDQSQLFADLSREELTTVMSFLTQQLGPDLVDAAQARPSDNCVFSVELQLPPKAAALAHLDRGSPPPAREALAIVFFGGQPQPNVTELVVGPLPQPSYMRDVTVERHGGPLPYYRRPVLLREYLDIDQMIFNRELPQAAGVLHHCCSYKQGGQKLLTMNSAPRGVQSGDRSTWFGIYYNITKGGPYLHPVGLELLVDHKALDPADWTVQKVFFQGRYYENLAQLEEQFEAGQVNVVVIPDDGTGGFWSLKSQVPPGPTPPLQFHPQGPRFSVQGNRVASSLWTFSFGLGAFSGPRVFDVRFQGERLAYEISLQEAGAVYGGNTPAAMLTRYMDSGFGMGYFATPLIRGVDCPYLATYMDWHFVVESQTPKTLHDAFCVFEQNKGLPLRRHHSDFLSHYFGGVAQTVLVFRSVSTMLNYDYVWDMVFYPNGAIEVKLHATGYISSAFLFGAARRYGNQVGEHTLGPVHTHSAHYKVDLDVGGLENWVWAEDMAFVPTAIPWSPEHQIQRLQVTRKQLETEEQAAFPLGGASPRYLYLASKQSNKWGHPRGYRIQTVSFAGGPMPQNSPMERAFSWGRYQLAITQRKETEPSSSSVFNQNDPWTPTVDFSDFINNETIAGKDLVAWVTAGFLHIPHAEDIPNTVTVGNGVGFFLRPYNFFDQEPSMDSADSIYFREGQDAGSCEINPLACLPQAATCAPDLPVFSHGGYPEY
For B1, in series [1], the Km is 1.77±0.24 mM mM, the kcat came out at 1.23 ± 0.06 s⁻¹ and the kcat/Km is 695 M⁻¹ s⁻¹. In series [2], the Km is recorded as 0.74±0.15 mM mM, the kcat was determined as 1.15 ± 0.06 s⁻¹ and the kcat/Km stood at 1550 M⁻¹ s⁻¹.
